Data as given in the supplement of paper PMC9732359.
± gives the uncertainty stated by the source.

Experiment: protein stability index of a GFP-peptide fusion (yeast GPS) (PSI 1-4); higher = more stable; sorted into four equal gates, so the index is relative within each strain
Procedure, shortened: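 For each peptide, the protein stability index sums the read frequency in every gate after multiplying it by the gate number. Read frequencies came from plasmids that were PCR-amplified from each gate and Illumina-sequenced, with reads assigned to strains by barcodes. The gates were four equal bins of GFP/Cherry fluorescence ratio applied to mid-log yeast in leucine-free medium carrying a pooled library of tiled 17-residue yeast protein peptides fused downstream of GFP on a Cherry-expressing plasmid.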

Sequence | protein stability index (doa10∆) | protein stability index (pdr5∆) | protein stability index (san1∆) | protein stability index (ubr1∆)
ELESITESITHDSSNGL [NUT1] | 2.95 ± 0.1 | 3.27 ± 0.074 | 3.25 ± 0.051 | 3.2 ± 0.067
ELFDILSTSEDVSIEEL [IRR1] | 2.66 ± 0.17 | 2.15 ± 0.2 | 2.6 ± 0.21 | 2 ± 0.13
ELGEFFVNGVATSFSRK [FAS2] | 2.98 ± 0.07 | 2.6 ± 0.075 | 2.63 ± 0.1 | 2.69 ± 0.048
ELISLRKILESSNIVNE [YIL149C/MLP2] | 2.17 ± 0.089 | 2.53 ± 0.068 | 2.33 ± 0.064 | 2.12 ± 0.1
ELKKYMDKKILLNINGS [SMX2] | 1.88 ± 0.059 | 2.25 ± 0.062 | 2 ± 0.094 | 2 ± 0.045
ELLLTTLSVSHGINLQN [SSN2] | 1.89 ± 0.044 | 2.04 ± 0.043 | 1.76 ± 0.081 | 2.19 ± 0.059
ELLREWLETYSENRDKF [IRR1] | 3.34 ± 0.066 | 3.43 ± 0.098 | 3.61 ± 0.078 | 3.51 ± 0.056
ELLSMNIAPRLRLEDIF [RET1] | 2.57 ± 0.065 | 2.25 ± 0.046 | 2.35 ± 0.057 | 2.5 ± 0.047
ELQKSLSLEEVEGHLFE [FAS1] | 3.16 ± 0.11 | 3.32 ± 0.16 | 3.35 ± 0.061 | 3.08 ± 0.098
ELSFYILYSFKLSGKLL [YML103C/NUP188] | 1.47 ± 0.043 | 1.49 ± 0.04 | 1.49 ± 0.081 | 1.74 ± 0.037
ELTIIKNPRVTKEYLVQ [CSN9] |  | 3 ± 0.3 | 3.15 ± 0.11 | 3.35 ± 0.091
EMKNIRGPYLVIVPLST [SNF2] | 1.44 ± 0.054 | 1.51 ± 0.053 | 1.44 ± 0.087 | 1.38 ± 0.043
EMSNKVLKVDKRFMNTS [BRR2] | 2.9 ± 0.04 | 2.96 ± 0.05 | 2.99 ± 0.038 | 2.93 ± 0.039
ENANAANNGAAFSPLTT [MED2] | 3.1 ± 0.11 | 2.92 ± 0.1 | 2.88 ± 0.1 | 2.79 ± 0.057
ENAYKSENAPSASSKEF [YAR002W/NUP60] | 2.18 ± 0.066 | 1.86 ± 0.062 | 2.15 ± 0.078 | 2.15 ± 0.074
ENCLNNDPEILKKIASI [SWI1] | 2.48 ± 0.11 | 2.08 ± 0.074 | 2.48 ± 0.1 | 2.71 ± 0.092
ENDIIKLSDSKTSNIES [BRR2] |  | 2.48 ± 0.18 | 2.77 ± 0.19 | 3.09 ± 0.15
ENDLLQEFDSELSKEEK [SMC3] | 2.74 ± 0.3 |  |  | 3.03 ± 0.27
ENDTTLVKTKELIKNYI [FAS1] | 3.04 ± 0.13 | 2.85 ± 0.15 | 2.83 ± 0.13 | 2.68 ± 0.058
ENFAKGEHISAIVPGQS [SWP82] | 3.01 ± 0.064 | 3.18 ± 0.085 | 2.87 ± 0.06 | 3.05 ± 0.055
ENGIEVELLDSNDRVNP [ITC1] | 3.56 ± 0.078 | 3.2 ± 0.11 | 3.29 ± 0.062 | 3.19 ± 0.061
ENGQRDLDRIAAQTLEE [RPS19A] | 3.2 ± 0.084 | 3.16 ± 0.086 | 3.28 ± 0.097 | 3.19 ± 0.093
ENISLAEFILKNRSTIF [BRR2] | 2.77 ± 0.082 | 2.13 ± 0.082 | 1.67 ± 0.11 | 1.88 ± 0.054
ENKTKKDNDKNLKFLKN [SRB4] | 3.42 ± 0.064 | 3.4 ± 0.079 | 3.28 ± 0.048 | 3.42 ± 0.057
ENLVVADLESFANNHFL [COR1] | 1.7 ± 0.12 | 2.24 ± 0.18 | 1.97 ± 0.14 | 1.89 ± 0.12
ENNDDALDLDLDLFDPD [MED4] | 2.89 ± 0.067 | 2.98 ± 0.098 | 2.79 ± 0.052 | 3.1 ± 0.051
EPAIEEENGDSIKEHST [MED1] | 3.32 ± 0.19 |  | 3.23 ± 0.14 | 3.56 ± 0.14

Sequence | protein stability index (doa10∆) | protein stability index (pdr5∆) | protein stability index (san1∆) | protein stability index (ubr1∆)
EPIDQNTGIVSSTTGMS [RPT3] | 3.15 ± 0.11 | 2.65 ± 0.22 | 3.39 ± 0.14 | 3.24 ± 0.089
EPIEESSQNNSELAPIE [IRR1] | 2.89 ± 0.2 | 2.9 ± 0.13 | 2.73 ± 0.26 | 2.73 ± 0.095
EPIKLEPVKEYTFKTSM [YMR129W/POM152] | 2.22 ± 0.098 | 2.29 ± 0.08 | 1.99 ± 0.17 | 
EPPGSNTSFSFTKPPAN [YOR098C/NUP1] | 3.12 ± 0.07 | 3.21 ± 0.057 | 3 ± 0.039 | 2.96 ± 0.053
EPVKEYTFKTSMRVKPS [YMR129W/POM152] | 3.31 ± 0.15 | 3.08 ± 0.13 | 3.04 ± 0.13 | 3.48 ± 0.16
EQHEEKAAEGEEKEEEN [QCR6] | 3.25 ± 0.12 | 2.92 ± 0.18 | 2.98 ± 0.23 | 3.23 ± 0.079
EQIDENWSKEDLQKLLK [SWI3] | 3.16 ± 0.067 | 3.08 ± 0.085 | 3.02 ± 0.073 | 3.26 ± 0.058
EQQVKEAEMAYVKAVSD [SMC4] | 3.21 ± 0.082 | 2.89 ± 0.093 | 2.83 ± 0.08 | 2.83 ± 0.069
EQTRTILSVKLAELINM [SRB6] |  |  | 2.91 ± 0.24 | 
EQVKDDGTSTEKTFLHL [RPN8] | 3.28 ± 0.12 | 3.66 ± 0.13 | 3.42 ± 0.05 | 3.46 ± 0.082
ERAARVAAKIAALAGQQ [RPL5] | 2.71 ± 0.13 | 3.03 ± 0.17 | 2.57 ± 0.15 | 3.11 ± 0.079
ERDEQKRAEKKAKERLQ [SNF2] | 3.29 ± 0.12 | 3.45 ± 0.16 | 2.98 ± 0.13 | 3.4 ± 0.12
ERDTFSDFTFPEYYSTA [DIS3] | 1.66 ± 0.082 | 1.73 ± 0.082 | 2.15 ± 0.17 | 1.64 ± 0.14
EREQPQENKNIDDENIT [SRB4] | 3.5 ± 0.055 | 3.19 ± 0.071 | 3.07 ± 0.051 | 3.65 ± 0.084
ERTKNAQFIVISLRNNM [SMC4] | 2.72 ± 0.13 | 1.3 ± 0.063 | 1.33 ± 0.093 | 1.73 ± 0.08
ERVRLRPEQLSNIIHDE [SNF6] | 1.73 ± 0.06 | 2.23 ± 0.068 | 1.76 ± 0.083 | 1.99 ± 0.041
ERVRNFAVIYLCDIDEV [DIB1] | 1.26 ± 0.13 | 1.22 ± 0.093 | 1.04 ± 0.26 | 1.36 ± 0.088
ERVSPTDIEEGMRVGVD [RPT1] | 3.16 ± 0.14 | 3.4 ± 0.14 | 2.83 ± 0.096 | 3.16 ± 0.12
ESAPITAEDSWAVISAF [RPB2] | 3.17 ± 0.08 | 2.99 ± 0.062 | 2.91 ± 0.051 | 2.99 ± 0.06
ESDLYKLKECPFDMGGY [RPB2] | 3.13 ± 0.076 | 3.25 ± 0.087 | 3.22 ± 0.068 | 3.34 ± 0.036
ESDSKLQCHISGTTNFM [UBP6] | 2.63 ± 0.23 | 2.69 ± 0.26 | 2.92 ± 0.28 | 3.08 ± 0.15
ESDTGLAPSHLWDIMGD [RPT1] | 2.91 ± 0.16 |  | 3.06 ± 0.12 | 
ESGEFDFDLFKEVLPDL [YJL039C/NUP192] | 3.43 ± 0.13 | 3.26 ± 0.092 | 3.17 ± 0.063 | 3.23 ± 0.079
ESIDVDMDAESNESQNG [SMC3] | 3.21 ± 0.094 | 2.91 ± 0.079 | 2.65 ± 0.066 | 3.27 ± 0.037
ESKFILEALRQNYRLDG [RRP45] |  |  | 2.95 ± 0.28 | 
ESKGNAFKHKRALVEHI [RPL19A] | 3.36 ± 0.087 | 3.38 ± 0.1 | 3.44 ± 0.047 | 3.29 ± 0.054
